To fix the notation:
B1: Chorion-specific transcription factor GCMb (Homo sapiens), O75603 (parent)
chain: MPAAAVQEAVGVCSYGMQLSWDINDPQMPQELALFDQFREWPDGYVRFIYSSDEKKAQRHLSGWAMRNTNNHNGHILKKSCLGVVVCTQACTLPDGSRLQLRPAICDKARLKQQKKACPNCHSALELIPCRGHSGYPVTNFWRLDGNAIFFQAKGVHDHPRPESKSETEARRSAIKRQMASFYQPQKKRIRESEAEENQDSSGHFSNIPPLENPEDFDIVTETSFPIPGQPCPSFPKSDVYKATCDLATFQGDKMPPFQKYSSPRIYLPRPPCSYELANPGYTNSSPYPTLYKDSTSIPNDTDWVHLNTLQCNVNSYSSYERSFDFTNKQHGWKPALGKPSLVERTNHGQFQAMATRPYYNPELPCRYLTTPPPGAPALQTVITTTTKVSYQAYQPPAMKYSDSVREVKSLSSCNYAPEDTGMSVYPEPWGPPVTVTRAASPSGPPPMKIAGDCRAIRPTVAIPHEPVSSRTDEAETWDVCLSGLGSAVSYSDRVGPFFTYNNEDF
B2: Coiled-coil alpha-helical rod protein 1 (Homo sapiens), Q8TD31 (parent)
chain: MFPPSGSTGLIPPSHFQARPLSTLPRMAPTWLSDIPLVQPPGHQDVSERRLDTQRPQVTMWERDVSSDRQEPGRRGRSWGLEGSQALSQQAEVIVRQLQELRRLEEEVRLLRETSLQQKMRLEAQAMELEALARAEKAGRAEAEGLRAALAGAEVVRKNLEEGSQRELEEVQRLHQEQLSSLTQAHEEALSSLTSKAEGLEKSLSSLETRRAGEAKELAEAQREAELLRKQLSKTQEDLEAQVTLVENLRKYVGEQVPSEVHSQTWELERQKLLETMQHLQEDRDSLHATAELLQVRVQSLTHILALQEEELTRKVQPSDSLEPEFTRKCQSLLNRWREKVFALMVQLKAQELEHSDSVKQLKGQVASLQEKVTSQSQEQAILQRSLQDKAAEVEVERMGAKGLQLELSRAQEARRRWQQQTASAEEQLRLVVNAVSSSQIWLETTMAKVEGAAAQLPSLNNRLSYAVRKVHTIRGLIARKLALAQLRQESCPLPPPVTDVSLELQQLREERNRLDAELQLSARLIQQEVGRAREQGEAERQQLSKVAQQLEQELQQTQESLASLGLQLEVARQGQQESTEEAASLRQELTQQQELYGQALQEKVAEVETRLREQLSDTERRLNEARREHAKAVVSLRQIQRRAAQEKERSQELRRLQEEARKEEGQRLARRLQELERDKNLMLATLQQEGLLSRYKQQRLLTVLPSLLDKKKSVVSSPRPPECSASAPVAAAVPTRESIKGSLSVLLDDLQDLSEAISKEEAVCQGDNLDRCSSSNPQMSS
partner: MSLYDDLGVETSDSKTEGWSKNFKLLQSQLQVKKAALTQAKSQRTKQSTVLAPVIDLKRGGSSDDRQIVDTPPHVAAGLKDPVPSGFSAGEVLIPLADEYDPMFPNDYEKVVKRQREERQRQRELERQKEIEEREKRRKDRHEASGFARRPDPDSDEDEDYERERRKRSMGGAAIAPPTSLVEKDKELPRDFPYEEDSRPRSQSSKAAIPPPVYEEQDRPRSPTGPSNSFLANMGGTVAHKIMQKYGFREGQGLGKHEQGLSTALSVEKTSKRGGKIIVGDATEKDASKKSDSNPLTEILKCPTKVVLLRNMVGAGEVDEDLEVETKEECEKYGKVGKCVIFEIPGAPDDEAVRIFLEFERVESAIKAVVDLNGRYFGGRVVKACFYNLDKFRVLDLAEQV
B3: TBC1 domain family member 22B (Homo sapiens), Q9NU19 (parent)
chain: MAAENSKQFWKRSAKLPGSIQPVYGAQHPPLDPRLTKNFIKERSKVNTVPLKNKKASSFHEFARNTSDAWDIGDDEEEDFSSPSFQTLNSKVALATAAQVLENHSKLRVKPERSQSTTSDVPANYKVIKSSSDAQLSRNSSDTCLRNPLHKQQSLPLRPIIPLVARISDQNASGAPPMTVREKTRLEKFRQLLSSQNTDLDELRKCSWPGVPREVRPITWRLLSGYLPANTERRKLTLQRKREEYFGFIEQYYDSRNEEHHQDTYRQIHIDIPRTNPLIPLFQQPLVQEIFERILFIWAIRHPASGYVQGINDLVTPFFVVFLSEYVEEDVENFDVTNLSQDMLRSIEADSFWCMSKLLDGIQDNYTFAQPGIQKKVKALEELVSRIDEQVHNHFRRYEVEYLQFAFRWMNNLLMRELPLRCTIRLWDTYQSEPEGFSHFHLYVCAAFLIKWRKEILDEEDFQGLLMLLQNLPTIHWGNEEIGLLLAEAYRLKYMFADAPNHYRR
partner: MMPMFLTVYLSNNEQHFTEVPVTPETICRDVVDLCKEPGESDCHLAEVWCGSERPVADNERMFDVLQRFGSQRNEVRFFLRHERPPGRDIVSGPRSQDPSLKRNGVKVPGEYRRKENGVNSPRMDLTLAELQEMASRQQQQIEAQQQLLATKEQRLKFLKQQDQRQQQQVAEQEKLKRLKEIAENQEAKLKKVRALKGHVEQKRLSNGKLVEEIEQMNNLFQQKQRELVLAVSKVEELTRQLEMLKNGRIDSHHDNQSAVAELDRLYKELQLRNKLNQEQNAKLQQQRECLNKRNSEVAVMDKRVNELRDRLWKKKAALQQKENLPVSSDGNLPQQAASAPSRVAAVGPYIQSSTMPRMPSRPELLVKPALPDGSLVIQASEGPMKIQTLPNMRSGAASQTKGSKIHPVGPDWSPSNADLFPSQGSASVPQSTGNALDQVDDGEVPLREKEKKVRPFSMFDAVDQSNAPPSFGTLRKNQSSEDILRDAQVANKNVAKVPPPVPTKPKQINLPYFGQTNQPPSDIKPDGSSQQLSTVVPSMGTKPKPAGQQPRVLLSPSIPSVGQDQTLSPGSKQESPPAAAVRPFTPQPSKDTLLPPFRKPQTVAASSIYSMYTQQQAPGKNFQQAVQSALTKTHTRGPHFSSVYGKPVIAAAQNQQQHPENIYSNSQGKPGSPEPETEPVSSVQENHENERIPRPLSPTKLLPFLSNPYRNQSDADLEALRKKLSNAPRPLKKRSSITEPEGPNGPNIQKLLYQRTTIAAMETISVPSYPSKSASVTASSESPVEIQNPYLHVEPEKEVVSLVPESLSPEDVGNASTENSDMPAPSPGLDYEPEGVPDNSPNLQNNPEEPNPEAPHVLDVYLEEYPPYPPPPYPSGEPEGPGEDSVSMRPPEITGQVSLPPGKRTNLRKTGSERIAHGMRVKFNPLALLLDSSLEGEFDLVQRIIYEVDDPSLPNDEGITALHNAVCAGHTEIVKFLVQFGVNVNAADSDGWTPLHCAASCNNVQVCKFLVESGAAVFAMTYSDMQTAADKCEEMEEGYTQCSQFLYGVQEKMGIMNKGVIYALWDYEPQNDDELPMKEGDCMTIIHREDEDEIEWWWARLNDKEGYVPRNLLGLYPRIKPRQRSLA
B4: Cell division cycle-associated 7-like protein (Homo sapiens), Q96GN5 (parent)
chain: MELATRYQIPKEVADIFNAPSDDEEFVGFRDDVPMETLSSEESCDSFDSLESGKQQDVRFHSKYFTEELRRIFIEDTDSETEDFAGFTQSDLNGKTNPEVMVVESDLSDDGKASLVSEEEEDEEEDKATPRRSRSRRSSIGLRVAFQFPTKKLANKPDKNSSSEQLFSSARLQNEKKTILERKKDCRQVIQREDSTSESEDDSRDESQESSDALLKRTMNIKENKAMLAQLLAELNSMPDFFPVRTPTSASRKKTVRRAFSEGQITRRMNPTRSARPPEKFALENFTVSAAKFAEEFYSFRRRKTIGGKCREYRRRHRISSFRPVEDITEEDLENVAITVRDKIYDKVLGNTCHQCRQKTIDTKTVCRNQGCCGVRGQFCGPCLRNRYGEDVRSALLDPDWVCPPCRGICNCSYCRKRDGRCATGILIHLAKFYGYDNVKEYLESLQKELVEDN
partner: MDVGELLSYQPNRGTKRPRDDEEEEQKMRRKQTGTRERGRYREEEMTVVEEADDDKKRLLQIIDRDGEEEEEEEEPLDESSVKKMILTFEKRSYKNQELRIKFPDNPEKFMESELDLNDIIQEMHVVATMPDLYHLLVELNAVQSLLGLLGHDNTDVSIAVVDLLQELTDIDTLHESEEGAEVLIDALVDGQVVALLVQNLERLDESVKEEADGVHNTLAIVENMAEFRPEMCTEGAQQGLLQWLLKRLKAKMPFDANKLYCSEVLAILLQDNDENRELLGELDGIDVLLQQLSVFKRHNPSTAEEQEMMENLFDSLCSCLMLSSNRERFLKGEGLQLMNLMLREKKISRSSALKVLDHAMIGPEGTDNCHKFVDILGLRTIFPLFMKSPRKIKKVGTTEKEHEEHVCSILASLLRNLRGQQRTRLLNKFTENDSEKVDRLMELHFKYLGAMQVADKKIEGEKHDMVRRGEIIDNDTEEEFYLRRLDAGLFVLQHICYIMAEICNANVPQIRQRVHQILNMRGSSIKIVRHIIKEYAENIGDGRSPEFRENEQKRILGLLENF

One experiment covers variants of B1. The following applies: with crx_human CRX.
Consider G349E, for which the “effect of a mutation on the interaction” value is on record as “with no effect”.

Another experiment covers variants of B1. The following applies: with rbpms_human RBPMS.
As for G349E, the “effect of a mutation on the interaction” value was “with no effect”.

The next experiment covers variants of B2. Particulars: with spf45_human RBM17, Q96I25.
Consider W337R, for which the “effect of a mutation on the interaction” value is given as “disrupting interaction strength”.

In the next experiment the parent is B3. Particulars: with aspp2_human TP53BP2, Q13625.
As to A349T, the “effect of a mutation on the interaction” value is “disrupting interaction strength”.

A further experiment covers variants of B4. Particulars: with ctbl1_human CTNNBL1, Q8WYA6.
For the variant R268H, the “effect of a mutation on the interaction” value was “with no effect”.
